B1: ALDH8A1 (parent)
chain: WSSRSPQERSRVLNQVADLLEQSL
B2: PRPH (parent)
chain: RTFGPPPSLSPGAFSYSSSSRFSS

Variants of: B1
Experiment: protein stability index of a GFP-peptide fusion (GPS, HEK-293T) (PSI 1-6); higher = more stable
Details: c terminus: a fixed tail appended
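Note: lentivirally expressed fusions sorted by FACS into six bins by GFP to DsRed ratio, PSI derived from sequencing read proportions per bin multiplied by bin number.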

| Variant | protein stability index |
| --- | --- |
| WSSRSPQERGRVLNQVADLLEQSL [S10G] | 3.8 |
| WSSRSPQERNRVLNQVADLLEQSL [S10N] | 2.29 |
| WSSCSPQERSRVLNQVADLLEQSL [R4C] | 1.68 |
| WSWRSPQERSRVLNQVADLLEQSL [S3W] | 1.8 |
| WSNRSPQERSRVLNQVADLLEQSL [S3N] | 2.35 |
| WSYRSPQERSRVLNQVADLLEQSL [S3Y] | 2.25 |
| WSTRSPQERSRVLNQVADLLEQSL [S3T] | 2.64 |
| WSSRSGQERSRVLNQVADLLEQSL [P6G] | 2.85 |
| WSSRSVQERSRVLNQVADLLEQSL [P6V] | 2.39 |
| WSSRSPQERSRVLNQVADLLEQSK [L24K] | 3.94 |
| WSSRSPQERSRVLNQVADLLEQSI [L24I] | 1.76 |
| WSSRSPQERSRVLNQVADLLEQSN [L24N] | 2.96 |
| WSSRSPQERSRVLNQVADLLEQSH [L24H] | 3.96 |
| WSSRSPQERSRVLNQVMDLLEQSL [A17M] | 1.85 |
| WSSRSPQERSRVLNQVDDLLEQSL [A17D] | 3.87 |
| WSSRSPQERSRVLNHVADLLEQSL [Q15H] | 2.13 |
| WSSRSPQEISRVLNQVADLLEQSL [R9I] | 2.44 |
| WSSRSPQEVSRVLNQVADLLEQSL [R9V] | 2.37 |
| WSSRSPQEDSRVLNQVADLLEQSL [R9D] | 3.25 |

| Variant | protein stability index |
| --- | --- |
| WSSRSPQECSRVLNQVADLLEQSL [R9C] | 1.39 |
| WSSRSPQERSMVLNQVADLLEQSL [R11M] | 1.55 |
| WSSRSPQERSNVLNQVADLLEQSL [R11N] | 2.48 |
| WSSRSPQERSRVLNQVADVLEQSL [L19V] | 3.07 |
| WKSRSPQERSRVLNQVADLLEQSL [S2K] | 2.48 |
| WASRSPQERSRVLNQVADLLEQSL [S2A] | 1.99 |
| WTSRSPQERSRVLNQVADLLEQSL [S2T] | 2.46 |
| WSSRSPQERSRVGNQVADLLEQSL [L13G] | 3.46 |
| WSSRSPQERSRVMNQVADLLEQSL [L13M] | 2.63 |
| WSSRSPQERSRVANQVADLLEQSL [L13A] | 2.59 |
| WSSRSPQERSRVRNQVADLLEQSL [L13R] | 3.03 |
| WSSRRPQERSRVLNQVADLLEQSL [S5R] | 2.87 |
| WSSRCPQERSRVLNQVADLLEQSL [S5C] | 2.56 |
| WSSRGPQERSRVLNQVADLLEQSL [S5G] | 2.05 |
| WSSRSPQERSRVLNQVADLLEESL [Q22E] | 2.88 |
| WSSRSPQERSRVLNQVADLLEDSL [Q22D] | 3.63 |
| WSSRSPQERSRVLNQVADLLEISL [Q22I] | 2.01 |
| WSSRSPQERSRVLNQVADLLYQSL [E21Y] | 1.71 |
| WSSRSPQERSRFLNQVADLLEQSL [V12F] | 2.12 |

| Variant | protein stability index |
| --- | --- |
| WSSRSPQERSRCLNQVADLLEQSL [V12C] | 2.35 |
| WSSRSPQERSRWLNQVADLLEQSL [V12W] | 1.73 |
| WSSRSPQERSRTLNQVADLLEQSL [V12T] | 3.47 |
| WSSRSPQERSRVLNQNADLLEQSL [V16N] | 4.2 |
| WSSRSPQERSRVLNQIADLLEQSL [V16I] | 2 |
| WSSRSPQTRSRVLNQVADLLEQSL [E8T] | 2.46 |
| WSSRSPTERSRVLNQVADLLEQSL [Q7T] | 2.15 |
| WSSRSPGERSRVLNQVADLLEQSL [Q7G] | 2.7 |
| WSSRSPEERSRVLNQVADLLEQSL [Q7E] | 2.76 |
| WSSRSPIERSRVLNQVADLLEQSL [Q7I] | 2.42 |
| WSSRSPAERSRVLNQVADLLEQSL [Q7A] | 2.38 |
| WSSRSPQERSRVLNQVAHLLEQSL [D18H] | 2.2 |
| WSSRSPQERSRVLNQVAVLLEQSL [D18V] | 1.92 |
| WSSRSPQERSRVLNQVATLLEQSL [D18T] | 2.02 |
| WSSRSPQERSRVLNQVADLDEQSL [L20D] | 4.64 |
| WSSRSPQERSRVLNQVADLPEQSL [L20P] | 4.33 |
| WSSRSPQERSRVLNQVADLYEQSL [L20Y] | 3.37 |
| WSSRSPQERSRVLNQVADLHEQSL [L20H] | 3.86 |

Variants of: B2
Experiment: as above
Details: c terminus: a fixed tail appended

| Variant | protein stability index |
| --- | --- |
| RTFGPPPSLSPGAFSYSSSSRFST [S24T] | 3.23 |
| RTFGPPPSLSPGAFSYSSSSRFSL [S24L] | 2.27 |
| RTFGPPPSLSPGAFSYSSSSRFSV [S24V] | 2.3 |
| RTFGPPPSLSPGAFSYSSSSRFSE [S24E] | 3.38 |
| RTFGPPPSLSPGAFSYSSSSRFSN [S24N] | 3.44 |
| RTFGPPPSLSPGAFSYSSSSRFSH [S24H] | 3.55 |
| RTFGPPPSLSPGAFSYSSSSRFSD [S24D] | 3.19 |
| RTFGPPPSLSPGAFSYSSSSRFSR [S24R] | 3.85 |
| RTFGPPPSLSPGAFSYSSSSRFSQ [S24Q] | 3.31 |
| RTFGPPPSLSPGAFSYSSSSRFSF [S24F] | 1.96 |
| RTFGPPPSLSPGAFSYSSSSRFSY [S24Y] | 2.46 |
| RTFGPPPSLSPGAFSYSSSSRFSM [S24M] | 2.55 |
| RTFGPPPSLSPGAFSYSSSSRFSW [S24W] | 2.82 |
| RTFGPPPSLSPGAFSYSSSSRFSC [S24C] | 2.83 |
| RTFGPPPSLSPGAFSYSSSSRFSI [S24I] | 3.01 |
| RTFGPPPSLSPGAFSYSSSSRFSK [S24K] | 3.89 |
| RTFGPPPSLSPGAFSYSSSSRYSS [F22Y] | 3.22 |
| RTFGPPPSLSPGAFSYSSSSRWSS [F22W] | 2.83 |
| RTFGPPPSLSPGAFSYSSSSRVSS [F22V] | 3.8 |

| Variant | protein stability index |
| --- | --- |
| RTFGPPPSLSPGAFSYSSSSRTSS [F22T] | 4.17 |
| RTFGPPPSLSPGAFSYSSSSRFAS [S23A] | 3.17 |
| RTFGPPPSLSPGAFSYSSSSRFRS [S23R] | 3.52 |
| RTFGPPPSLSPGAFSYSSSSRFES [S23E] | 2.79 |
| RTFGPPPSLSPGAFSYSSSSRFDS [S23D] | 2.9 |
| RTFGPPPSLSPGAFSYSSSSRFMS [S23M] | 2.88 |
| RTFGPPPSLSPGAFSYSSSSRFLS [S23L] | 2.93 |
| RTFGPPPSLSPGAFSYSSSSRFCS [S23C] | 3.02 |
| RTFGPPPSLSPGAFSYSSSSRFPS [S23P] | 3.59 |
| RTFGPPPSLSPGAFSYSSSSRFTS [S23T] | 3.23 |
| RTFGPPPSLSPGAFSYSSSSRFKS [S23K] | 3.48 |
| RTFGPPPSLSPGAFSYSSSSRFGS [S23G] | 2.6 |
| RTFGPPPSLSPGAFSYSSSSRFHS [S23H] | 3.02 |
| RTFGPPPSLSPGAFSYSSSSRFVS [S23V] | 2.85 |
| RTFGPPPSLSPGAFSYSSSSRFIS [S23I] | 2.52 |
| RTFGPPPSLSPGAFSYSSSSRFQS [S23Q] | 3.47 |
| RTFGPPPSLSPGAFSYSSSSRFNS [S23N] | 3.36 |
| RTFGPPPSLSPGAFSYSSSSRFYS [S23Y] | 2.66 |
| RTFGPPPSLSPGAFSYSSSSRFFS [S23F] | 3.09 |

From the supplement of paper PMC10567573
